Measured values: FireProtDB (doi:10.1021/bi020461s)

B1: Glutamate dehydrogenase, P96110 (parent)
chain: MPEKSLYEMAVEQFNRAASLMDLESDLAEVLRRPKRVLIVEFPVRMDDGHVEVFTGYRVQHNVARGPAKGGIRYHPDVTLDEVKALAFWMTWKTAVMNLPFGGGKGGVRVDPKKLSRNELERLSRRFFSEIQVIIGPYNDIPAPDVNTNADVMAWYMDTYSMNVGHTVLGIVTGKPVELGGSKGREEATGRGVKVCAGLAMDVLGIDPKKATVAVQGFGNVGQFAALLISQELGSKVVAVSDSRGGIYNPEGFDVEELIRYKKEHGTVVTYPKGERITNEELLELDVDILVPAALEGAIHAGNAERIKAKAVVEGANGPTTPEADEILSRRGILVVPDILANAGGVTVSYFEWVQDLQSFFWDLDQVRNALEKMMKGAFNDVMKVKEKYNVDMRTAAYILAIDRVAYATKKRGIYP

Variants of: B1
Settings: Thermotoga maritima (strain ATCC 43589 / DSM 3109 / JCM 10099 / NBRC 100826 / MSB8), pH 7, CD, sodium phosphate 20 mM, reversible: yes, structure 1B26, whole UniProt chain shown

## R191A K194A
20 °C, Urea
  ddG of mutation (higher = less stable): 0.16 kcal/mol
  denaturant m value: 1.33 kcal/mol/M
  denaturant midpoint (higher = more stable): 3.21 M
  unfolding free energy: 4.69 kcal/mol
Thermal
  Tm: 67.5 °C
  change of melting temperature, mutant - wild type (higher = more stable): -2 °C
  unfolding enthalpy (van 't Hoff): 53.2 kcal/mol

## R191A
20 °C, GdnHCl
  ddG of mutation (higher = less stable): 0.41 kcal/mol
  denaturant m value: 2.63 kcal/mol/M
  denaturant midpoint (higher = more stable): 1.59 M
  unfolding free energy: 4.71 kcal/mol
20 °C, Urea
  ddG of mutation (higher = less stable): 0.32 kcal/mol
  denaturant m value: 1.7 kcal/mol/M
  denaturant midpoint (higher = more stable): 3.1 M
  unfolding free energy: 4.53 kcal/mol
69.5 °C, Thermal
  ddG of mutation (higher = less stable): 0.34 kcal/mol
Thermal
  Tm: 67.3 °C
  change of melting temperature, mutant - wild type (higher = more stable): -2.2 °C
  unfolding enthalpy (van 't Hoff): 49.5 kcal/mol

## K194A E232A
20 °C, GdnHCl
  ddG of mutation (higher = less stable): -0.92 kcal/mol
  denaturant m value: 2.73 kcal/mol/M
  denaturant midpoint (higher = more stable): 2.04 M
  unfolding free energy: 6.04 kcal/mol
20 °C, Urea
  ddG of mutation (higher = less stable): -0.51 kcal/mol
  denaturant m value: 1.42 kcal/mol/M
  denaturant midpoint (higher = more stable): 3.67 M
  unfolding free energy: 5.36 kcal/mol
Thermal
  Tm: 71.2 °C
  change of melting temperature, mutant - wild type (higher = more stable): 1.7 °C
  unfolding enthalpy (van 't Hoff): 52.7 kcal/mol
